Patent US10487307B2, “Culture method for pluripotent stem cells” (FUJIFILM CORPORATION, priority 2013, dated 2019)

Tests used:
human iPS cells ("Tic") = assay: Cell adhesiveness evaluation 1 (ALP activity of adhesive iPS cells); format: cell-based; conditions: added amount 200 pmol/cm^2; 30,000 cells/well, 24 hours; natural vitronectin (sample 15) = 100%; n=3
Method in brief: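 Peptides and controls were adsorbed onto wells for 2 h at 37 °C. Single-cell human iPS cells in TeSR2 with 10 μM Y-27362 were seeded at 30,000 cells/well. After 24 h, non-adherent cells were washed off and adherent cells fixed; cell number came from ALP activity via a calibration curve. Adhesion is expressed relative to natural vitronectin (100%), n=3.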

iPS cells [1] = assay: Growth evaluation, growth curves over 8 days; format: cell-based, human
Description: The iPS cells collected in the same manner as in <Cell adhesiveness evaluation 1> were seeded into a 96-well plate, onto which RCP-1, RCP-21, and natural human vitronectin were adsorbed, at a ratio of 250 cells/well and cultured for 8 days in a 5% CO2 incubator at 37° C. The number of adhesive cells after different days of culture was measured in the same manner as in <Cell adhesiveness evaluation 1>, thereby obtaining growth curves. […] In FIG. 2, a black rhombus indicates a case using RCP-1, and a black square indicates a case using RCP-21.
From the increase and decrease in the obtained number of cells, the doubling time was calculated. As a result, it was confirmed that it takes 46.4±2.1 hours for the number of cells to be doubled in a case where RCP-1 is used, and 67.7±2.1 hours in a case where RCP-21 is used.

iPS cells [2] = assay: Evaluation of maintenance of undifferentiated state (reference examples); format: cell-based, human
Description: iPS cells collected in the same manner as in <Cell adhesiveness evaluation 1> were suspended in TeSR2. The iPS cells were seeded into 6-well plate (Tissue culture-treated, Falcon), onto which each of the samples 1, 2, 5, 6, and 7 used in <Cell adhesiveness evaluation 1> was adsorbed in the same manner as in <Cell adhesiveness evaluation 1>, and cultured in a CO2 incubator at 37° C. Except for the day after the seeding, the medium was replaced every day. In the same method as described above, the cells were subcultured every six days.
After being cultured for 1 month under the conditions described above, the cells were immobilized using 4% paraformaldehyde and treated with 1% Triton-X/PBS so as to enhance the membrane permeability. After the cells were subjected to a blocking treatment using an Image IT Signal Enhancer (Invitrogen), an anti-human NANOG antibody (AF 1997, R&D Systems, Inc.), an Alexa Fluor 555 binding rabbit anti-goat IgG antibody (Invitrogen), and DAPI (4′,6-diamidino-2-phenylindole, Dojindo Molecular Technologies, Inc.) were added thereto for labeling, and the cells were imaged using a fluorescence microscope.
FIGS. 3A and 4A show the iPS cells cultured on RCP-1; FIGS. 3B and 4B show the iPS cells cultured on RCP-11; FIGS. 3C and 4C show the iPS cells cultured on natural human vitronectin; FIGS. 3D and 4D show the iPS cells cultured on rLaminin-5; and FIGS. 3E and 4E show the iPS cells cultured on rLaminin-511. The scale bar in the images indicates […]. In FIGS. 3A to 3E, the images on the left side are full images of the colony, and the images on the right side are magnified images. In FIGS. 4A to 4E, the images on the left side are images of the cells stained with DAPI, and the images on the right side are images of the cells stained with an anti-NANOG antibody. The scale bar in FIGS. 3A to 4E indicates 200 μm.

B1: RCP-21: comparative polypeptide, SEQ ID NO: 26; positions 1-459, having the sequence of human vitronectin (protein)
chain: GPLGDQESCKGRCTEGFNVDKKCQCDELCSYYQSCCTDYTAECKPQVTRGDVFTMPEDEYTVYDDGEEKNNATVHEQVGGPSLTSDLQAQSKGNPEQTPVLKPEEEAPAPEVGASKPEGIDSRPETLHPGRPQPPAEEELCSGKPFDAFTDLKNGSLFAFRGQYCYELDEKAVRPGYPKLIRDVWGIEGPIDAAFTRINCQGKTYLFKGSQYWRFEDGVLDPDYPRNISDGFDGIPDNVDAALALPAHSYSGRERVYFFKGKQYWEYQFQHQPSQEECEGSSLSAVFEHFAMMQRDSWEDIFELLFWGRTSAGTRQPQFISRDWHGVPGQVDAAMAGRIYISGMAPRPSLAKKQRFRHRNRKGYRSQRGHSRGRNQNSRRPSRATWLSLFSSEESNLGANNYDDYRMDWLVPATCEPIQSVFFFSGDKYYRVNLRTRRVDTVDPPYPRSIAQYWLGCPAPGHL
modifications: Vitronectin-derived Recombinant Protein (RCP-21)
Cell adhesion rate (%) (human iPS cells ("Tic")): 93.5 ± 7.9% | doubling time (iPS cells [1]; 250 cells/well, cultured for 8 days): 67.7 ± 2.1 h | number of cells on Day 8 of culture as fraction of the number with RCP-1 (iPS cells [1]; FIG. 2): about ⅓ | form of iPS cell colony (iPS cells [2]; TeSR2, subcultured every six days, FIGS. 3A to 3E): form specific to undifferentiated cells | NANOG expression (iPS cells [2]; cultured for 1 month in TeSR2, anti-NANOG staining, FIGS. 4A to 4E): strongly expressed NANOG in the entirety of the colony
